Measurements as given in the supplement of paper PMC10567573.

B1: FUT8 (parent)
chain: YPSYKVREKIETVKYPTYPEAEK

Variants of: B1
Test: protein stability index of a GFP-peptide fusion (GPS, HEK-293T) (PSI 1-6); higher = more stable
Settings: c terminus: native
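Further: lentivirally expressed fusions sorted by FACS into six bins by GFP to DsRed ratio, PSI derived from sequencing read proportions per bin multiplied by bin number.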

Protein stability index of substitutions, site by site:
Y15: F 4.49 | P 4.45 | I 4.58 | T 3.77 | W 2.88 | R 4.22 | K 5.03 | D 5.2 | H 4.72 | Q 4.77 | M 4.48 | V 4.18 | S 4.64 | C 3.88
P16: G 4.28 | N 4.12 | A 3.89 | R 3.95 | C 3.7 | D 4.4 | K 4.19 | S 3.75 | Q 4.14 | I 3.65 | F 4.79 | L 4.03 | T 4.13 | E 4.29
V6: R 4.36 | P 4.62 | H 4.58 | A 4.67 | T 4.25 | S 4.48 | I 3.89 | D 4.76 | Y 4.15 | E 4.43 | C 3.91 | Q 4.13 | F 2.83 | K 4.55 | N 4.62
E22: D 4.31 | A 3.28 | C 1.66 | P 4.46 | F 4.11 | M 3.45 | R 4.2 | Y 2.93 | I 2.17 | Q 4.44 | K 4.54
K23: F 3.68 | G 3.96 | W 2.53 | M 2.94 | L 3 | D 4.61 | T 3.36 | I 4.41 | V 3.4 | C 3.19 | Q 4.04 | P 3.88 | E 1.93 | S 3.46 | Y 2.9 | R 1.82 | A 2.92 | N 3.95
K14: C 4.18 | I 3.88 | P 4.09 | Q 4.21 | E 4.03 | M 3.85 | L 2.97 | H 3.95 | S 4.44 | N 4.62 | G 4.98 | A 4.17 | V 3.65 | Y 3.43
K9: I 3.1 | H 3.62 | Q 4.25 | M 4.24 | G 4.12 | R 3.98 | N 4.38 | D 4.14 | Y 2.56 | L 2.91 | S 4.28 | C 4.43 | A 4.31 | P 4.74 | E 4.5 | F 2.64 | T 4.44
R7: W 2.79 | G 4.7 | N 4.59 | D 4.67 | K 4.16 | Q 4.45 | H 3.84 | L 4.48 | M 4.48 | T 3.96 | E 4.7 | P 4.67 | S 4.49 | Y 3.6 | C 3.76 | I 3.73
T17: A 4.56 | P 4.46 | K 4.69 | G 4.02 | L 3.6 | N 4.75 | F 3.45 | Y 2.87 | C 3.8 | M 3.77 | I 3.7 | E 4.43 | R 4.34 | V 4 | H 4.41 | S 4.79 | Q 4.3
E20: Q 3.61 | S 3.56 | N 4.41 | Y 3.52 | K 4.69 | V 3.48 | C 3.33 | W 2.9 | L 3.5 | A 3.93 | R 3.63 | G 4.26 | M 3.55 | D 4.62
P19: F 2.01 | I 3.59 | E 4.67 | C 3 | M 3.04 | W 2.37 | Q 3.85 | T 3.45 | H 3.18 | S 3.94 | Y 1.25 | V 2.98 | A 3.79 | N 4.11
P2: V 2.75 | A 3.58 | N 3.9 | W 3.32 | F 3.51 | D 4.48 | R 4.76 | Q 2.5 | K 4.35 | G 4.05 | H 3.01 | C 3.11 | T 3.35 | Y 3.73 | E 4.52
Y18: M 4.15 | K 2.85 | Q 4.54 | S 4.68 | E 4.65 | V 4.24 | I 3.96 | G 3.52 | P 5.06 | N 4.63 | A 4.08 | T 4.7 | R 5.1 | C 4.98 | H 4.31 | W 3.63 | L 3.87
Y4: H 4.93 | D 4.57 | W 3.66 | A 4.86 | P 5.02 | F 4.64 | K 5.03 | L 4.68 | N 4.47 | Q 4.52 | E 4 | C 4.13 | R 4.29 | V 4.52 | T 4.91 | S 4.59 | M 4.88
K5: Q 4.68 | L 4.12 | P 4.61 | R 4.32 | G 4.29 | N 4.81 | Y 3.62 | F 2.91 | C 4.2 | V 4.16 | T 4.6 | D 4.72 | H 4.34 | I 4.45 | A 3.92
S3: F 3.25 | G 3.92 | D 4.69 | R 3.79 | W 3.02 | K 4.78 | T 4.19 | C 4.08 | Y 4.12 | A 4.02 | V 3.66 | I 4.44 | N 4.3 | M 4.08
I10: N 4.87 | E 4.61 | A 4.19 | R 4.56 | C 4.21 | T 4.97 | S 4.46 | Y 4.29 | M 4.35 | F 4.36 | K 4.57 | L 4.28 | H 4.27 | D 4.71
E11: N 3.1 | P 4.12 | G 3.59 | I 3.34 | Q 4.27 | S 4.07 | F 3.15 | T 3.5 | Y 3.44 | M 3.46 | C 3.91 | L 4.01 | K 4.32 | V 3.59 | A 4.3
E8: M 2.69 | N 4.27 | Q 4.01 | V 1.75 | A 3.96 | C 2.62 | G 3.92 | D 4.26 | P 3.72 | K 3.59 | L 1.99
V13: G 4.66 | P 4.24 | R 4.34 | C 4.12 | H 3.97 | N 4.26 | E 4.79 | I 4.29 | M 3.7 | Y 3.72 | T 4.18 | S 4.69 | L 4.29 | K 4.62 | D 4.64 | A 4.7 | W 3.04
T12: G 4.01 | K 4.71 | N 3.62 | R 4.05 | L 3.14 | W 3.21 | P 4.49 | V 2.14 | S 3.91 | E 4.33 | Q 4.94 | Y 4.15
A21: F 4.18 | M 4.7 | K 3.26 | P 4.04 | L 3.38 | V 3.89 | D 4.34 | N 3.45 | G 4.29 | S 4.1 | T 3.67 | R 3.43 | C 3.74
Y1: A 5.42 | Q 4.96 | W 4.46 | H 4.98 | D 5.3 | N 5.08 | V 4.97 | C 4.41 | S 4.96 | E 4.99
